# Source: article PMC4137571 (Biomaterials, 2014)
# Where “and” joins values, the source holds several entries; their conditions need not be identical. Equal values may be shown once.
# B1: HEV P^+ (modified protruding (P) protein of hepatitis E virus with C-terminal cysteine-containing peptide) (domain or fragment)
# chain: PTPSPAPSRPFSVLRANDVLWLSLTAAEYDQTTYGSSTNPMYVSDTVTLVNVATGAQAVARSLDWSKVTLDGRPLTTIQQYSKTFYVLPLRGKLSFWEAGTTKAGYPYNYNTTASDQILIENAAGHRVAISTYTTSLGAGPTSISAVGVLAPHSALAVLEDTIDYPCDCRGDCFC
# Biological target: the molecule itself
# Assay: SEC
protein,measurement,value
B1,stoichiometry N,2 and 4
